# Source: paper PMC7076015 (2020)
# B1: Flag-myc-hnRNP R (wild type) [not stated] / HA-KPNA7 [human] (parent complex)
# chain 1: MANQVNGNAVQLKEEEEPMDTSSVTHTEHYKTLIEAGLPQKVAERLDEIFQTGLVAYVDLDERAIDALREFNEEGALSVLQQFKESDLSHVQNKSAFLCGVMKTYRQREKQGSKVQESTKGPDEAKIKALLERTGYTLDVTTGQRKYGGPPPDSVYSGVQPGIGTEVFVGKIPRDLYEDELVPLFEKAGPIWDLRLMMDPLSGQNRGYAFITFCGKEAAQEAVKLCDSYEIRPGKHLGVCISVANNRLFVGSIPKNKTKENILEEFSKVTEGLVDVILYHQPDDKKKNRGFCFLEYEDHKSAAQARRRLMSGKVKVWGNVVTVEWADPVEEPDPEVMAKVKVLFVRNLATTVTEEILEKSFSEFGKLERVKKLKDYAFVHFEDRGAAVKAMDEMNGKEIEGEEIEIVLAKPPDKKRKERQAARQASRSTAYEDYYYHPPPRMPPPIRGRGRGGGRGGYGYPPDYYGYEDYYDDYYGYDYHDYRGGYEDPYYGYDDGYAVRGRGGGRGGRGAPPPPRGRGAPPPRGRAGYSQRGAPLGPPRGSRGGRGGPAQQQRGRGSRGSRGNRGGNVGGKRKADGYNQPDSKRRQTNNQQNWGSQPIAQQPLQQGGDYSGNYGYNNDNQEFYQDTYGQQWK
# chain 2: not shown
# Variants of: B1
# Experiment: co-immunoprecipitation (HA-IP, Flag western blot quantified); HEK293T(HA-KPNA7) cell extracts; input 2%, IP 30%; parent: 1
row,Variant,ratio to parent
1,"chain 1 K572A, chain 1 R573A, chain 1 K574A",0.21
2,"chain 1 K584A, chain 1 R585A, chain 1 R586A",0.2
3,"chain 1 K414A, chain 1 K415A, chain 1 R416A",0.43
